The source of these data is article PMC11006224.

As a reminder, the Kd is the concentration at which binding is half-saturated.

This assay deals with human FcRn-b2m protein construct containing an AviTag (human) (UniProt P55899). As to the kind of experiment: BLI. On the technique in general: Biolayer interferometry detects binding as a change in optical thickness at a sensor tip.
Chain of UniProt P55899 (P55899 24-365, chain 1 of 2): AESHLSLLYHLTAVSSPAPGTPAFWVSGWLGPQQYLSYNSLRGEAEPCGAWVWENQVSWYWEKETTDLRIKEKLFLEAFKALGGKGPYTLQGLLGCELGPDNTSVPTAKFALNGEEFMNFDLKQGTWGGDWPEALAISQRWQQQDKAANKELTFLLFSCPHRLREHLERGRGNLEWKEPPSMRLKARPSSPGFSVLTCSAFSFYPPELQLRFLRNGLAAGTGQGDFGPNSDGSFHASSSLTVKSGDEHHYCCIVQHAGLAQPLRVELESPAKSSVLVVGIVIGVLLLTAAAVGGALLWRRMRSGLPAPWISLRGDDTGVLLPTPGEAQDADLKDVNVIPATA
Chain of UniProt P55899 (P61769 21-119, chain 2 of 2, further chain): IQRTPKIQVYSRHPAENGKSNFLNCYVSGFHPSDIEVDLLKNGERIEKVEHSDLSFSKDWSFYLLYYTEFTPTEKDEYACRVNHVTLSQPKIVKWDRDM

“rituximab IgG1, full length (from UniProt P01857 1-399) (antibody)”: the Kd amounted to 14.3 nM. This lies in the double-digit nanomolar range.
